The subject of one series is F1*sub RNA substrate (template-directed ligation). Put plainly: fraction ligated after 30 min (ligated reads / total reads); higher = more ligase activity. Conditions: 42 °C. On the procedure: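 Chip-synthesised pool of F1* ligase ribozyme variants (all single and double substitutions, single, double and triple deletions in the catalytic core and GAA bulge, plus designed variants) was transcribed with T7 and reacted as a pool with excess substrate F1*sub for 30 min at 42 C in 50 mM EPPS pH 8.5, 25 mM MgCl2. Ligated and unligated bands were separated by PAGE, barcoded by RT and deep sequenced; fraction ligated = ligated reads / total reads per variant, relative activity = FL / FL of wild type (0.826). Sequences are the DNA template of the ribozyme.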
Take “GAGACCGCAACTGAAAAGTTGTATCACTTGTCGTAAGACACTTTGGATGGGTTGGTTCTGCACGTAGAAGCAAAAGGC [3d276]”: the fraction ligated came out at 0.00404.
“GAGACCGCAACTGAAAAGTTGTTACACTTGTCGTAAGACACTTTGGATGGGTTGGTTCTGCACGTAGAAGCAAAAGGC [3d737]”: the fraction ligated came out at 0.00325.
Take “GAGACCGCAACTGAAAAGTTGTTATACTTGTCGTAAGACACTTTGGATGGGTTGGTTCTGCACGTAGAAGCAAAAGGC [3d948]”: the fraction ligated turned out to be 0.
For the sequence “GAGACCGCAACTGAAAAGTTGTTATCACTGTCGTAAGACACTTTGGATGGGTTGGTTCTGCACGTAGAAGCAAAAGGC [3d1463]”, the fraction ligated was found to be 0.0111.
Same read-out and setting: the same measure for “GAGACCGCAACTGAAAAGTTGTTATCACTTGCGTAAGACACTTTGGATGGGTTGGTTCTGCACGTAGAAGCAAAAGGC [3d1704]”: 0.0839.
On the same count and under the same terms, the same measure for “GAGACCGCAACTGAAAAGTTGTTATCACTTGTCGAAGACACTTTGGATGGGTTGGTTCTGCACGTAGAAGCAAAAGGC [3d1980]”: 0.102.
Regarding “GAGACCGCAACTGAAAAGTTGTTATCACTTGTCGTAAACACTTTGGATGGGTTGGTTCTGCACGTAGAAGCAAAAGGC [3d2104]”, the fraction ligated came out at 0.0572.

The test system is the same in a further series. Put plainly: fraction ligated after 30 min (ligated reads / total reads); higher = more ligase activity; sequences stand for … in GAGACCGCAACTGAAAAGTTGT…AGTTCTGCACGTAGAAGCAAAAGGC
Conditions: 42 °C. The essentials: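 Ribozyme variants were transcribed with T7 from PCR-amplified oligo-pool templates and gel-purified. Ligated and unligated bands, separated on gel, were reverse transcribed with barcoded primers and sequenced on a MiSeq, with core bases filtered at quality ≥20. Fraction ligated per variant was computed as ligated reads divided by total reads.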
The sequence TTCACTTGTCTAAGACACTTTGGATGGGTTG [3d415] had a fraction ligated of 0.752.
The same measure, in the same setting: the result for TTCACTTGTCTAAGACACTTTGGATGGGTTGA [2d32] reads 0.768.
TTCACTTGTCTAAGACACTTTGGATGGTTGA [3d413] displayed a fraction ligated of 0.661.
TTCACTTGTCTAAGACACTTTGGTGGGTTGA [3d411] yielded a fraction ligated of 0.035.
On the same count and under the same terms, the result for TTCACTTGTCTAAGACATTTGGATGGGTTGA [3d408] reads 0.753.
Turning to TTCACTTGTCTAAGACCTTTGGATGGGTTGA [3d407], the fraction ligated worked out at 0.578.
The same measure, in the same setting: the result for TTCACTTGTCTAAGCACTTTGGATGGGTTGA [3d405] reads 0.67.
In turn, TTCACTTGTCTAGACACTTTGGATGGGTTGA [3d403] registered a fraction ligated of 0.703.
Still for that read-out and setting: the result for TTCACTTGTGAAGACACTTTGGATGGGTTGA [3d388] reads 0.767; that for TTCACTTGTGTAAACACTTTGGATGGGTTGA [3d390], 0.793.
With TTCACTTGTGTAAGAACTTTGGATGGGTTGA [3d392], the fraction ligated was 0.694.
The same measure, in the same setting: the result for TTCACTTGTGTAAGACACTTGGATGGGTTGA [3d395] reads 0.161; that for TTCACTTGTGTAAGACACTTTGATGGGTTGA [3d396], 0.122; that for TTCACTTGTGTAAGACACTTTGGAGGGTTGA [3d398], 0.105.
The same measure, in the same setting: the result for TTCACTTGTGTAAGACACTTTGGATGGGTTA [3d400] reads 0.132.
The same measure, in the same setting: the result for TTCACTTGTGTAAGACACTTTGGATGGGTTG [3d401] reads 0.726.
Sequence TTCACTTGTGTAAGACACTTTGGATGGGTTGA [2d31] registered a fraction ligated of 0.781.
In turn, TTCACTTGTGTAAGACACTTTGGATGGTTGA [3d399] showed a fraction ligated of 0.284.
For TTCACTTGTGTAAGACACTTTGGTGGGTTGA [3d397], the fraction ligated came out at 0.00981.
The sequence TTCACTTGTGTAAGACATTTGGATGGGTTGA [3d394] displayed a fraction ligated of 0.778.
Same read-out and setting: the result for TTCACTTGTGTAAGACCTTTGGATGGGTTGA [3d393] reads 0.548; that for TTCACTTGTGTAAGCACTTTGGATGGGTTGA [3d391], 0.775.
Consider TTCACTTGTGTAGACACTTTGGATGGGTTGA [3d389], for which the fraction ligated amounted to 0.762.
The same measure, in the same setting: the same measure for TTCACTTGTTAAGACACTTTGGATGGGTTGA [3d387]: 0.775.
In turn, TTCACTTTCGAAGACACTTTGGATGGGTTGA [3d357] had a fraction ligated of 0.145.
The same measure, in the same setting: the same measure for TTCACTTTCGTAAACACTTTGGATGGGTTGA [3d359]: 0.0493; for TTCACTTTCGTAAGAACTTTGGATGGGTTGA [3d361]: 0.832.
The same measure, in the same setting: the result for TTCACTTTCGTAAGACACTTGGATGGGTTGA [3d364] reads 0.13; that for TTCACTTTCGTAAGACACTTTGATGGGTTGA [3d365], 0.0352.
Same read-out and setting: the result for TTCACTTTCGTAAGACACTTTGGAGGGTTGA [3d367] reads 0.0281; that for TTCACTTTCGTAAGACACTTTGGATGGGTTA [3d369], 0.0133.
As for TTCACTTTCGTAAGACACTTTGGATGGGTTG [3d370], the fraction ligated was 0.184.
Regarding TTCACTTTCGTAAGACACTTTGGATGGGTTGA [2d29], the fraction ligated worked out at 0.501.
The same measure, in the same setting: the same measure for TTCACTTTCGTAAGACACTTTGGATGGTTGA [3d368]: 0.0816.
TTCACTTTCGTAAGACACTTTGGTGGGTTGA [3d366] yielded a fraction ligated of 0.00787.
Same read-out and setting: the result for TTCACTTTCGTAAGACATTTGGATGGGTTGA [3d363] reads 0.775; that for TTCACTTTCGTAAGACCTTTGGATGGGTTGA [3d362], 0.437.
Same read-out and setting: the result for TTCACTTTCGTAAGCACTTTGGATGGGTTGA [3d360] reads 0.466; that for TTCACTTTCGTAGACACTTTGGATGGGTTGA [3d358], 0.142.
The same measure, in the same setting: the result for TTCACTTTCTAAGACACTTTGGATGGGTTGA [3d356] reads 0.36; that for TTCACTTTGTAAGACACTTTGGATGGGTTGA [3d355], 0.747; that for TTCATGTCGTAAGACACTTTGGATGGGTTGA [3d317], 0.468.
Turning to TTCATTGCGTAAGACACTTTGGATGGGTTGA [3d319], the fraction ligated was 0.11.
Still for that read-out and setting: the same measure for TTCATTGTCGAAGACACTTTGGATGGGTTGA [3d322]: 0.197; for TTCATTGTCGTAAACACTTTGGATGGGTTGA [3d324]: 0.068.
Still for that read-out and setting: the same measure for TTCATTGTCGTAAGAACTTTGGATGGGTTGA [3d326]: 0.149; for TTCATTGTCGTAAGACACTTGGATGGGTTGA [3d329]: 0.453.
Still for that read-out and setting: the same measure for TTCATTGTCGTAAGACACTTTGATGGGTTGA [3d330]: 0.505.
Sequence TTCATTGTCGTAAGACACTTTGGAGGGTTGA [3d332] displayed a fraction ligated of 0.175.
On the same count and under the same terms, the same measure for TTCATTGTCGTAAGACACTTTGGATGGGTTA [3d334]: 0.0829; for TTCATTGTCGTAAGACACTTTGGATGGGTTG [3d335]: 0.285; for TTCATTGTCGTAAGACACTTTGGATGGGTTGA [2d27]: 0.509.
Still for that read-out and setting: the same measure for TTCATTGTCGTAAGACACTTTGGATGGTTGA [3d333]: 0.421; for TTCATTGTCGTAAGACACTTTGGTGGGTTGA [3d331]: 0.106; for TTCATTGTCGTAAGACATTTGGATGGGTTGA [3d328]: 0.5.
The same measure, in the same setting: the result for TTCATTGTCGTAAGACCTTTGGATGGGTTGA [3d327] reads 0.529; that for TTCATTGTCGTAAGCACTTTGGATGGGTTGA [3d325], 0.176.
TTCATTGTCGTAGACACTTTGGATGGGTTGA [3d323]: the fraction ligated stood at 0.271.
Sequence TTCATTGTCTAAGACACTTTGGATGGGTTGA [3d321] yielded a fraction ligated of 0.203.
TTCATTGTGTAAGACACTTTGGATGGGTTGA [3d320] returned a fraction ligated of 0.137.
On the same count and under the same terms, the result for TTCATTTCGTAAGACACTTTGGATGGGTTGA [3d318] reads 0.104.
Same read-out and setting: the same measure for TTCCTGTCGTAAGACACTTTGGATGGGTTGA [3d298]: 0.746.
The same measure, in the same setting: the same measure for TTCCTTGCGTAAGACACTTTGGATGGGTTGA [3d300]: 0.779; for TTCCTTGTCGAAGACACTTTGGATGGGTTGA [3d303]: 0.796; for TTCCTTGTCGTAAACACTTTGGATGGGTTGA [3d305]: 0.786.
The sequence TTCCTTGTCGTAAGAACTTTGGATGGGTTGA [3d307] displayed a fraction ligated of 0.765.
Still for that read-out and setting: the same measure for TTCCTTGTCGTAAGACACTTGGATGGGTTGA [3d310]: 0.776; for TTCCTTGTCGTAAGACACTTTGATGGGTTGA [3d311]: 0.595; for TTCCTTGTCGTAAGACACTTTGGAGGGTTGA [3d313]: 0.186.
Still for that read-out and setting: the same measure for TTCCTTGTCGTAAGACACTTTGGATGGGTTA [3d315]: 0.229.
Still for that read-out and setting: the same measure for TTCCTTGTCGTAAGACACTTTGGATGGGTTG [3d316]: 0.731; for TTCCTTGTCGTAAGACACTTTGGATGGGTTGA [2d26]: 0.778.
TTCCTTGTCGTAAGACACTTTGGATGGTTGA [3d314] registered a fraction ligated of 0.175.
TTCCTTGTCGTAAGACACTTTGGTGGGTTGA [3d312] yielded a fraction ligated of 0.204.
Same read-out and setting: the result for TTCCTTGTCGTAAGACATTTGGATGGGTTGA [3d309] reads 0.756.
Still for that read-out and setting: the result for TTCCTTGTCGTAAGACCTTTGGATGGGTTGA [3d308] reads 0.737; that for TTCCTTGTCGTAAGCACTTTGGATGGGTTGA [3d306], 0.772.
Still for that read-out and setting: the same measure for TTCCTTGTCGTAGACACTTTGGATGGGTTGA [3d304]: 0.77; for TTCCTTGTCTAAGACACTTTGGATGGGTTGA [3d302]: 0.78.
With TTCCTTGTGTAAGACACTTTGGATGGGTTGA [3d301], the fraction ligated was found to be 0.782.
The same measure, in the same setting: the same measure for TTCCTTTCGTAAGACACTTTGGATGGGTTGA [3d299]: 0.753; for TTCTTGTCGTAAGACACTTTGGATGGGTTGA [3d277]: 0.765.

The record behind these values is the supplement of paper PMC6755084.
